In patent publication US20250353906A1 (FLAGSHIP PIONEERING INNOVATIONS VII, published 2025):

What was measured:
[1] = target: T1, recombinant His-tagged human IL-10Ra (Creative Biomart) (human, UniProt Q13651 22-235); assay: ELISA on coated His-tagged human IL-10Ra, serial dilution from 30 µg/mL
T1 construct: His tag; also called IL-10 receptor alpha
T1 sequence (looked up): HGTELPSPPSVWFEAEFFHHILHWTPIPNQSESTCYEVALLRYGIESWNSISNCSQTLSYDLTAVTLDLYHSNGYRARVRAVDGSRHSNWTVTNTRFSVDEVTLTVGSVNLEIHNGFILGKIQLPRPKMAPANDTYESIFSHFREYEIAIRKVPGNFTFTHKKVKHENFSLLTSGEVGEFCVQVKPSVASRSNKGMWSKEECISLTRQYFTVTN
Description: To test the binding of the IL-10/anti-DSG1 ANDbodies to IL-10 receptor alpha (IL-10Ra) by ELISA, recombinant His-tagged human IL-10Ra (Creative Biomart) was coated on NUNC-IMMUNO™ MAXISORP™ ELISA plates at 1 μg/mL concentration overnight. The next day, coated antigen was removed and the wells were blocked with 1% IgG-free BSA followed by incubation with 11 three-fold serially diluted anti-IL-10/anti-DSG1 ANDbodies (as provided above) with a starting concentration of 30 μg/mL. Bound antibody was detected with peroxidase-conjugated anti-human IgG antibodies with TMB and acid stop reagents.

[2] = target: T2, DSG1 stably expressed on HEK-BLUE IL-10 cells (HEKBLUE IL-10/DSG1) (human, UniProt Q02413 50-1049); assay: cell-based or functional assay
T2 sequence (looked up): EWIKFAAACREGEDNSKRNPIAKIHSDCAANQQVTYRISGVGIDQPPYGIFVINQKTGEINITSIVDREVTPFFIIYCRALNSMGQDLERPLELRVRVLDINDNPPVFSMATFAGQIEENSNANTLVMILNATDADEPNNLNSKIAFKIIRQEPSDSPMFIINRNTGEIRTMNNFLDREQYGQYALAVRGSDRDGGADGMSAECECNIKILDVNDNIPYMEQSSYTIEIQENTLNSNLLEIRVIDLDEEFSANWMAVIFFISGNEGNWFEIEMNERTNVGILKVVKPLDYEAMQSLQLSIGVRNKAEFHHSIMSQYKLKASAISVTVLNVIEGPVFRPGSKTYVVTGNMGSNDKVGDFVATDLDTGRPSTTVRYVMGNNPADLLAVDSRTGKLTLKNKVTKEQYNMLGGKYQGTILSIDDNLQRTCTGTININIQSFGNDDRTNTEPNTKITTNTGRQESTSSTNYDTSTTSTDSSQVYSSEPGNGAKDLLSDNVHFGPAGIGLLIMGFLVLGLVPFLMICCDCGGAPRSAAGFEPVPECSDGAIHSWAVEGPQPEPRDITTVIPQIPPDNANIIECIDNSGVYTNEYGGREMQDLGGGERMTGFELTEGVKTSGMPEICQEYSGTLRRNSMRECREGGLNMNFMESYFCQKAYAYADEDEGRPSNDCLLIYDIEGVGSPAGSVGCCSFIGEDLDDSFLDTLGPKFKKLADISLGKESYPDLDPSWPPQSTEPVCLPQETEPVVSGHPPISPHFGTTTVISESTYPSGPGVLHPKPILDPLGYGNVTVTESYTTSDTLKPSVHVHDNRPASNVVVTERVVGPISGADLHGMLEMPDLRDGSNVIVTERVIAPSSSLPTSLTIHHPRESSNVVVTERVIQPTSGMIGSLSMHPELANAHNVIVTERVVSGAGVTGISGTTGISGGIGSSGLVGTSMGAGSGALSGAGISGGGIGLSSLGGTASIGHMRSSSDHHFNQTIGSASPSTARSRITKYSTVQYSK

[3] = target: T3, recombinant His-tagged murine RAGE protein (ab276858 from Abcam) (mouse, UniProt Q62151 23-340, limits assumed); assay: BLI, ANDbody on anti-human IgG Fc biosensors, murine RAGE at 150 nM then murine Notch2 NRR at 150 nM
T3 construct: His tag; also called murine RAGE antigen
T3 sequence (Q62151 23-340 limits assumed): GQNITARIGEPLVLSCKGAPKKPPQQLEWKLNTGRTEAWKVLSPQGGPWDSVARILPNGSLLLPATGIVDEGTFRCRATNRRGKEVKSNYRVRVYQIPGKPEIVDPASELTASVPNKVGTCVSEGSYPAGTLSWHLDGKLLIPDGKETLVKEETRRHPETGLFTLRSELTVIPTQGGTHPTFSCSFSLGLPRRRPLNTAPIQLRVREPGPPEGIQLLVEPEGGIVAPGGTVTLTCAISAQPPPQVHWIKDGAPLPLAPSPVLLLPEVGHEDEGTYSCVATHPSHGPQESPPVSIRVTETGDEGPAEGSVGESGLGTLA
Description: To test simultaneous dual antigen binding of the Notch2/RAGE ANDbodies by BLI, PRO051, PRO052 and PRO053, along with monovalent parental antibody controls were immobilized on anti-human IgG Fc biosensors and dipped into the recombinant His-tagged murine RAGE protein at 150 nM, followed by a second association step into wells containing recombinant murine Notch2 NRR at 150 nM to measure dual antigen binding. The dissociation rate was then measured by dipping the biosensors into buffer.

B1: IL-10 Fc (Creative Biomart IL10-326H) (Fc fusion, human, UniProt P22301 19-178, looked up)
chain: SPGQGTQSENSCTHFPGNLPNMLRDLRDAFSRVKTFFQMKDQLDNLLLKESLLEDFKGYLGCQALSEMIQFYLEEVMPQAENQDPDIKAHVNSLGENLKTLRLRLRRCHRFLPCENKSKAVEQVKNAFNKLQEKGIYKAMSEFDIFINYIEAYMTMKIRN
notes: Bought reagent; also called positive control IL-10 Fc; hIL-10 Fc fusion; not shown: human Fc domain
B1: binds [1].

B2: PRO058 (other)
heavy: EVQLVESGGGLVQPGRSLRLSCAASGFTFDDYAMHWVRQAPGKGLEWVSGISWNSGSIDYADSVKGRFTISRDNAKNSLYLQMNSLRVEDTALYYCAKDGSRVFGVGGGFDFWGQGTMVTVSSASTKGPSVFPLAPSSKSTSGGTAALGCLVKDYFPEPVTVSWNSGALTSGVHTFPAVLQSSGLYSLSSVVTVPSSSLGTQTYICNVNHKPSNTKVDKKVEPKSCDKTHTCPPCPAPEAAGGPSVFLFPPKPKDTLMISRTPEVTCVVVDVSHEDPEVKFNWYVDGVEVHNAKTKPREEQYNSTYRVVSVLTVLHQDWLNGKEYKCKVSNKALGAPIEKTISKAKGQPREPQVYTLPPSRDELTKNQVKLTCLVKGFYPSDIAVEWESNGQPENNYKTTPPVLDSDGSFFLYSSLTVDKSRWQQGNVFSCSVMHEALHNHYTQKSLSLSPG
light: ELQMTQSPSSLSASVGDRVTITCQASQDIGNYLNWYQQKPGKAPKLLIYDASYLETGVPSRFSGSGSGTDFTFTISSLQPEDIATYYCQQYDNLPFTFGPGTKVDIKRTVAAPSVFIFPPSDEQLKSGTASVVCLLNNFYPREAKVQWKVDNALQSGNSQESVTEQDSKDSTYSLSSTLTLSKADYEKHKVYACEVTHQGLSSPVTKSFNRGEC
chain: SPGQGTQSENSCTHFPGNLPNMLRDLRDAFSRVKTFFQMKDQLDNLLLKESLLEDFKGYLGCQALSEMIQFYLEEVMPQAENQDPDIKAHVNSLGENLKTLRLRLRRCHRFLPCENGGGSGGKSKAVEQVKNAFNKLQEKGIYKAMSEFDIFINYIEAYMTMKIRNGGGGSGGGGSDKTHTCPPCPAPEAAGGPSVFLFPPKPKDTLMISRTPEVTCVVVDVSHEDPEVKFNWYVDGVEVHNAKTKPREEQYNSTYRVVSVLTVLHQDWLNGKEYKCKVSNKALGAPIEKTISKAKGQPREPQVYTLPPSRDELTKNQVSLTCLVSGFYPSDIAVEWESNGQPENNYKTTPPVLDSDGSFKLYSKLTVDKSRWQQGNVFSCSVMHEALHNRFTQKSLSLSPG
B2 was tested, and the “increase in potency of IL-10 signaling (SEAP, HEK-BLUE IL-10 cells) when DSG1 was expressed on the target cells” value [2] was ~15 fold.

B3: PRO052 (bispecific antibody)
heavy 1: not shown
light 1: DIQMTQSPSSLSASVGDRVTITCRASQSNRRFLAWYQQKPGKAPKLLIYGASSRASGVPSRFSGSGSGTDFTLTISSLQPEDFATYYCQQYYISPLTFGQGTKVEIKRTVAAPSVFIFPPSDEQLKSGTASVVCLLNNFYPREAKVQWKVDNALQSGNSQESVTEQDSKDSTYSLSSTLTLSKADYEKHKVYACEVTHQGLSSPVTKSFNRGEC
heavy 2: not shown
light 2: DIQMTQSPSSLSASVGDRVTITCRASQDVGIYVNWFQQKPGKAPRRLIYRATNLADGVPSRFSGSRSGTDFTLTISSLQPEDFATYYCLEFDEHPLTFGGGTKVEIKRTVAAPSVFIFPPSDEQLKSGTASVVCLLNNFYPREAKVQWKVDNALQSGNSQESVTEQDSKDSTYSLSSTLTLSKADYEKHKVYACEVTHQGLSSPVTKSFNRGEC
notes: Made by controlled Fab arm exchange from PRO035 (K409R) and PRO002 (F405L); also called Notch2/RAGE ANDbody PRO052; copies: 1 + 1 + 1 + 1
B3: binds [3].

B4: PRO051 (bispecific antibody)
heavy 1: not shown
light 1: not shown
heavy 2: not shown
light 2: DIQMTQSPSSLSASVGDRVTITCRASQDVGIYVNWFQQKPGKAPRRLIYRATNLADGVPSRFSGSRSGTDFTLTISSLQPEDFATYYCLEFDEHPLTFGGGTKVEIKRTVAAPSVFIFPPSDEQLKSGTASVVCLLNNFYPREAKVQWKVDNALQSGNSQESVTEQDSKDSTYSLSSTLTLSKADYEKHKVYACEVTHQGLSSPVTKSFNRGEC
notes: Made by controlled Fab arm exchange from PRO034 (K409R) and PRO002 (F405L); Signal peptides left out as for the parents; also called Notch2/RAGE ANDbody PRO051; RAGE-targeting ANDbody; copies: 1 + 1 + 1 + 1
B4: binds [3].

B5: PRO053 (bispecific antibody)
heavy 1: not shown
light 1: DIQMTQSPSSLSASVGDRVTITCRASQSVRSFLAWYQQKPGKAPKLLIYRASIRASGVPSRFSGSGSGTDFTLTISSLQPEDFATYYCQQYYISPWTFGQGTKVEIKRTVAAPSVFIFPPSDEQLKSGTASVVCLLNNFYPREAKVQWKVDNALQSGNSQESVTEQDSKDSTYSLSSTLTLSKADYEKHKVYACEVTHQGLSSPVTKSFNRGEC
heavy 2: not shown
light 2: DIQMTQSPSSLSASVGDRVTITCRASQDVGIYVNWFQQKPGKAPRRLIYRATNLADGVPSRFSGSRSGTDFTLTISSLQPEDFATYYCLEFDEHPLTFGGGTKVEIKRTVAAPSVFIFPPSDEQLKSGTASVVCLLNNFYPREAKVQWKVDNALQSGNSQESVTEQDSKDSTYSLSSTLTLSKADYEKHKVYACEVTHQGLSSPVTKSFNRGEC
notes: Made by controlled Fab arm exchange from PRO036 (K409R) and PRO002 (F405L); also called Notch2/RAGE ANDbody PRO053; copies: 1 + 1 + 1 + 1
B5: binds [3].
